Article PMC6660772

B1: KAP1 RBCC (residues 50-413), wild type [human] / itself (parent)
chain: SPAGGGAEALELLEHCGVCRERLRPEREPRLLPCLHSACSACLGPAAPAAANSSGDGGAAGDGTVVDCPVCKQQCFSKDIVENYFMRDSGSKAATDAQDANQCCTSCEDNAPATSYCVECSEPLCETCVEAHQRVKYTKDHTVRSTGPAKSRDGERTVYCNVHKHEPLVLFCESCDTLTCRDCQLNAHKDHQYQFLEDAVRNQRKLLASLVKRLGDKHATLQKSTKEVRSSIRQVSDVQKRVQVDVKMAILQIMKELNKRGRVLVNDAQKVTEGQQERLERQHWTMTKIQKHQEHILRFASWALESDNNTALLLSKKLIYFQLHRALKMIVDPVEPHGEMKFQWDLNAWTKSAEAFGKIVAERP

Variants of: B1
Experiment: SEC-MALS
Details: with itself; mutant 179 µM; WT 159 µM; read off a plot

screen value [kDa] | Variant
95 | chain 1 A111D T114A E126R
